Measurements published in the RNAGym collection of RNA variant scans (doi:10.1021/acssynbio.7b00057).

B1: Pistol ribozyme (parent)
chain: GGGUCGUUGUUCCAUAAUCGCGUGGAUAUGGCACGCAAGUUUCUACCGGGCACCGUAAAUGUCCGACUGGAGCCGUUCGGGCGGCUAUAAACAGACCUCAGGCCCGAAGCGUGGCGGCACCUGCCGCCGGUGGUAAAAAAGAUCGGAAGAGCACACGUCU

Variants of: B1
Experiment: aptazyme ON/OFF ratio, guanine; higher = stronger switching; co-transcriptional cleavage with and without guanine

Variant | aptazyme ON/OFF ratio
U7G U8G U10C U11A C12A | 1.34
U7G U8G U10C U11A C12G | 1.21
U7G U8G U10C U11A C12U | 1.36
U7G U8G G9U U11A C13U | 1.38
U7G U8G G9U U11A C13A | 1.33
U7G U8G G9U U11A C13G | 1.09
U7G U8G U10A U11C | 1.09
U7G U8G U10A U11G | 1.65
U7G U8G U10A U11A | 2.25
U7G U8G U10G U11C C12U C13G | 1.15
U7G U8G U10G U11C C12U C13U | 1.36
U7G U8G U10G U11C C12U C13A | 1.12
U7G U8G U10G C12G | 1.3
U7G U8G U10G C12A | 1.31
U7G U8G U10G C12U | 1.54
U7G U8G G9U U10G C13U | 1.36
U7G U8G G9U U10G C13A | 1.27
U7G U8G G9U U10G C13G | 1.21
U7G U8G U10C U11G C12G | 1.43
U7G U8G U10C U11G C12A | 1.41
U7G U8G U10C U11G C12U | 1.23
U7G U8G U10C U11A C13A | 1.38
U7G U8G U10C U11A C13G | 1.38
U7G U8G U10C U11A C13U | 1.47

Variant | aptazyme ON/OFF ratio
U7G U8G U10C U11A C12U C13A | 1.37
U7G U8G U10C U11A C12U C13U | 1.31
U7G U8G U10C U11A C12U C13G | 1.37
U7G U8G U10A U11G C12A C13U | 1.37
U7G U8G U10A U11G C12A C13G | 1.15
U7G U8G U10A U11G C12A C13A | 1.05
U7G U8G G9U U10G C12A C13A | 1.09
U7G U8G G9U U10G C12A C13U | 1.16
U7G U8G G9U U10G C12A C13G | 1.14
U7G U8G U10C U11C | 2.2
U7G U8G U10C U11A | 1.74
U7G U8G U10C U11G | 1.56
U7G U8G G9U U10G U11G C12G C13G | 1.06
U7G U8G G9U U10G U11G C12G C13U | 1.14
U7G U8G G9U U10G U11G C12G C13A | 1.09
U7G U8G U10G U11G C12U C13U | 1.32
U7G U8G U10G U11G C12U C13A | 1.13
U7G U8G U10G U11G C12U C13G | 1.13
U7G U8G G9U U11C | 3.17
U7G U8G G9U U11A | 2.18
U7G U8G G9U U11G | 2.02
U7G U8G G9U U11C C12G C13A | 1.14
U7G U8G G9U U11C C12G C13G | 1.17
U7G U8G G9U U11C C12G C13U | 1.43

Variant | aptazyme ON/OFF ratio
U7G U8G G9U U10G U11G C12U C13A | 1.11
U7G U8G G9U U10G U11G C12U C13G | 1.12
U7G U8G G9U U10G U11G C12U C13U | 1.18
U7G U8G U11A C12G | 1.43
U7G U8G U11A C12A | 1.36
U7G U8G U11A C12U | 1.38
U7G U8G G9U U10G U11A C12U C13A | 1.1
U7G U8G G9U U10G U11A C12U C13G | 1.19
U7G U8G G9U U10G U11A C12U C13U | 1.2
U7G U8G U10C U11C C12G C13U | 1.45
U7G U8G U10C U11C C12G C13G | 1.2
U7G U8G U10C U11C C12G C13A | 1.24
U7G U8G U10G C12A C13G | 1.19
U7G U8G U10G C12A C13A | 1.51
U7G U8G U10G C12A C13U | 1.4
U7G U8G U10G U11A C12U C13A | 1.33
U7G U8G U10G U11A C12U C13U | 1.17
U7G U8G U10G U11A C12U C13G | 1.17
U7G U8G U10G U11C C12G C13U | 1.4
U7G U8G U10G U11C C12G C13A | 1.29
U7G U8G U10G U11C C12G C13G | 1.25
U7G U8G U10C U11C C12U C13U | 1.4
U7G U8G U10C U11C C12U C13G | 1.34
U7G U8G U10C U11C C12U C13A | 1.29

Variant | aptazyme ON/OFF ratio
U7G U8G U10A U11A C12U C13G | 1.22
U7G U8G U10A U11A C12U C13A | 1.44
U7G U8G U10A U11A C12U C13U | 1.15
U7G U8G U11A C12A C13U | 1.15
U7G U8G U11A C12A C13G | 1.02
U7G U8G U11A C12A C13A | 1.34
U7G U8G G9U U10G U11C C12U C13U | 1.03
U7G U8G G9U U10G U11C C12U C13A | 1.06
U7G U8G G9U U10G U11C C12U C13G | 1.19
U7G U8G G9U U10G U11G C12G | 1.16
U7G U8G G9U U10G U11G C12U | 1.18
U7G U8G G9U U10G U11G C12A | 1.13
U7G U8G G9U U10G U11C C12A C13U | 1.1
U7G U8G G9U U10G U11C C12A C13G | 1.11
U7G U8G G9U U10G U11C C12A C13A | 1.1
U7G U8G G9U U10G C12U C13G | 1.21
U7G U8G G9U U10G C12U C13U | 1.2
U7G U8G G9U U10G C12U C13A | 1.17
U7G U8G U11C C12A | 1.31
U7G U8G U11C C12U | 1.37
U7G U8G U11C C12G | 1.15
U7G U8G G9U U11G C12U C13G | 1.2
U7G U8G G9U U11G C12U C13A | 1.07
U7G U8G G9U U11G C12U C13U | 1.27

Variant | aptazyme ON/OFF ratio
U7G U8G U10A C12U C13A | 1.16
U7G U8G U10A C12U C13U | 1.09
U7G U8G U10A C12U C13G | 1.18
U7G U8G U10C C12G C13U | 1.33
U7G U8G U10C C12G C13G | 1.54
U7G U8G U10C C12G C13A | 1.4
U7G U8G U10G U11C C12A | 1.17
U7G U8G U10G U11C C12G | 1.29
U7G U8G U10G U11C C12U | 1.24
U7G U8G U10A U11G C12G C13U | 1.22
U7G U8G U10A U11G C12G C13A | 1.15
U7G U8G U10A U11G C12G C13G | 1.23
U7G U8G U10A U11C C12U C13G | 1.25
U7G U8G U10A U11C C12U C13U | 1.5
U7G U8G U10A U11C C12U C13A | 1.42
U7G U8G U10C U11G C13G | 1.21
U7G U8G U10C U11G C13U | 1.47
U7G U8G U10C U11G C13A | 1.26
U7G U8G U11A C13G | 1.24
U7G U8G U11A C13A | 1.5
U7G U8G U11A C13U | 1.24
U7G U8G U10A C12U | 1.45
U7G U8G U10A C12G | 1.29
U7G U8G U10A C12A | 1.28

Variant | aptazyme ON/OFF ratio
U7G U8G G9U U11A C12A C13G | 1.13
U7G U8G G9U U11A C12A C13A | 1.07
U7G U8G G9U U11A C12A C13U | 1.18
U7G U8G U10G U11A C13U | 1.24
U7G U8G U10G U11A C13G | 1.18
U7G U8G U10G U11A C13A | 1.21
U7G U8G G9U U11C C12A C13A | 1.23
U7G U8G G9U U11C C12A C13U | 1.23
U7G U8G G9U U11C C12A C13G | 1.15
U7G U8G U10C U11G C12U C13G | 1.52
U7G U8G U10C U11G C12U C13A | 1.16
U7G U8G U10C U11G C12U C13U | 1.41
U7G U8G G9U U11G C13G | 1.19
U7G U8G G9U U11G C13U | 1.42
U7G U8G G9U U11G C13A | 1.2
U7G U8G G9U U10G | 1.42
U7G U8G G9U U11A C12G | 1.29
U7G U8G G9U U11A C12A | 1.43
U7G U8G G9U U11A C12U | 1.54
U7G U8G G9U U10G U11A C12A C13U | 1.18
U7G U8G G9U U10G U11A C12A C13G | 1.06
U7G U8G G9U U10G U11A C12A C13A | 1.07
U7G U8G U11C C12U C13U | 1.44
U7G U8G U11C C12U C13G | 1.3

Variant | aptazyme ON/OFF ratio
U7G U8G U11C C12U C13A | 1.38
U7G U8G U10A U11A C12A C13U | 1.21
U7G U8G U10A U11A C12A C13G | 1.22
U7G U8G U10A U11A C12A C13A | 1.31
U7G U8G U10A U11C C12U | 1.42
U7G U8G U10A U11C C12A | 1.4
U7G U8G U10A U11C C12G | 1.25
U7G U8G G9U U10G C12G C13A | 1.13
U7G U8G G9U U10G C12G C13U | 1.35
U7G U8G G9U U10G C12G C13G | 1.15
U7G U8G G9U U11A C12G C13A | 1.15
U7G U8G G9U U11A C12G C13U | 1.16
U7G U8G G9U U11A C12G C13G | 1.06
U7G U8G U11C C13A | 1.41
U7G U8G U11A C12G C13U | 1.33
U7G U8G U11A C12G C13A | 1.11
U7G U8G U11A C12G C13G | 1.15
U7G U8G G9U U10G U11C C12G | 1.11
U7G U8G G9U U10G U11C C12A | 1.13
U7G U8G G9U U10G U11C C12U | 1.04
U7G U8G G9U U10G U11C C13G | 1.17
U7G U8G G9U U10G U11C C13A | 1.18
U7G U8G G9U U10G U11C C13U | 1.11
